Source: PMC8390433

Molecular target: Arc (Activity-regulated cytoskeleton-associated protein, Arg3.1) (UniProt Q9WV31)
Test: dynamic light scattering, 20°C and 30°C
Settings: reference: wild type Arc; sites T278

other: DLS large-species diameter (share) at 30°C: stronger; reference 333.00± 68.4 (74%)
Substance: Arc (Activity-regulated cytoskeleton-associated protein, Arg3.1) (from UniProt Q9WV31) T278D
